# B1: DOM7h-1 (other)
# VL: DIQMTQSPSSLSASVGDRVTITCRASQSISSYLNWYQQKPGKAPKLLIYRNSFLQSGVPSRFSGSGSGTDFTLTISSLQPEDFATYYCQQTYTVPPTFGQGTKVEIKQ
# notes: also called DOM7-1
# Legend:
# human serum albumin [1] = biological target: T1, human serum albumin (human, UniProt P02768 25-609); assay: BIACORE, HSA flow cell (Fc=2), fit of the single trace at 2000n analyte, row 'Fc=2 - 3' [contd.]
# T1 construct: also called HSA; HAS
# Protocol: (§1) dAbs that bound serum albumin on a BIACORE chip (Biacore AB) were then further analysed to obtain information on affinity. The analysis was performed using a CM5 chip (carboxymethylated dextran matrix) that was coated with serum albumin. Flow cell 1 was an uncoated, blocked negative control, flow cell 2 was coated with HSA, flow cell 3 was coated with RSA and flow cell 4 was coated with MSA. The serum albumins were immobilised in acetate buffer pH 5.5 using the BIACORE coating wizard which was programmed to aim for 500 resonance units (RUs) of coated material. Each dAb of interest was expressed in the periplasm of E. coli on a 200 mL-500 mL scale and purified from the supernatant using batch absorption to protein A-streamline affinity resin (Amersham, UK) for the VH_{^S} and to protein L-agarose affinity resin (Affitech, Norway) for the Vκs followed by elution with glycine at pH 2.2 and buffer exchange to PBS. A range of concentrations of dAb were prepared (in the range 5 nM to 5 μM) by dilution into BIACORE HBS-EP buffer and flowed across the BIACORE chip.
# human serum albumin [2] = biological target: T1, human serum albumin; assay: BIACORE, HSA flow cell (Fc=2), fit of the single trace at 1000n analyte, row 'Fc=2 - 4'; KD cell shaded [contd.]
# Protocol: as §1
# human serum albumin [3] = biological target: T1, human serum albumin; assay: BIACORE, HSA flow cell (Fc=2), fit of the single trace at 1000n analyte, row 'Fc=2 - 4' [contd.]
# Protocol: as §1
# human serum albumin [4] = biological target: T1, human serum albumin; assay: BIACORE, HSA flow cell (Fc=2), fit of the single trace at 500n analyte, row 'Fc=2 - 5'; KD cell shaded [contd.]
# Protocol: (§2) dAbs that bound serum albumin on a BIACORE chip (Biacore AB) were then further analysed to obtain information on affinity. The analysis was performed using a CM5 chip (carboxymethylated dextran matrix) that was coated with serum albumin. Flow cell 1 was an uncoated, blocked negative control, flow cell 2 was coated with HSA, flow cell 3 was coated with RSA and flow cell 4 was coated with MSA. The serum albumins were immobilised in acetate buffer pH 5.5 using the BIACORE coating wizard which was programmed to aim for 500 resonance units (RUs) of coated material. […] A range of concentrations of dAb were prepared (in the range 5 nM to 5 μM) by dilution into BIACORE HBS-EP buffer and flowed across the BIACORE chip.
# human serum albumin [5] = biological target: T1, human serum albumin; assay: BIACORE, HSA flow cell (Fc=2), fit of the single trace at 2000n analyte, row 'Fc=2 - 3'; KD cell shaded [contd.]
# Protocol: as §1
# human serum albumin [6] = biological target: T1, human serum albumin; assay: BIACORE, HSA flow cell (Fc=2), fit of the single trace at 500n analyte, row 'Fc=2 - 5' [contd.]
# Protocol: as §1
# human serum albumin [7] = biological target: T1, human serum albumin; assay: BIACORE SPR, albumin on a CM5 chip, dAb in solution
# Protocol: as §1
# human serum albumin [8] = biological target: T1, human serum albumin; assay: BIACORE, HSA flow cell (Fc=2), fit of the single trace at 250n analyte, row 'Fc=2 - 6' [contd.]
# Protocol: as §1
# human serum albumin [9] = biological target: T1, human serum albumin; assay: BIACORE, HSA flow cell (Fc=2), fit of the single trace at 250n analyte, row 'Fc=2 - 6'; KD cell shaded [contd.]
# Protocol: as §2
# mouse serum albumin = biological target: T2, mouse serum albumin (mouse, UniProt P07724 25-608); assay: table of affinities (KD); BIACORE on serum albumin-coated chip according to Example 1;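 further: surface plasmon resonance with dAbs flowed over a chip carrying human, rat or mouse serum albumin, blocked uncoated flow cell as reference, KD from on- and off-rate curve fits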
# T2 construct: also called MSA
# Protocol: as §1
# human serum albumin [10] = biological target: T1, human serum albumin; assay: as above
# Protocol: as §1
# rat serum albumin = biological target: T3, rat serum albumin (rat, UniProt P02770 25-608); assay: as above
# T3 construct: also called RSA
# Protocol: as §1
binder,measurement,setting,value
B1,Ka,human serum albumin [1],1.05e+06 M⁻¹
same,koff,human serum albumin [1],0.0539 s⁻¹
same,kon,human serum albumin [1],56300 M⁻¹ s⁻¹
same,Kd,human serum albumin [2],351 nM
same,Ka,human serum albumin [3],2.85e+06 M⁻¹
same,koff,human serum albumin [3],0.0523 s⁻¹
same,kon,human serum albumin [3],149000 M⁻¹ s⁻¹
same,Kd,human serum albumin [4],429 nM
same,Kd,human serum albumin [5],957 nM
same,Ka,human serum albumin [6],2.33e+06 M⁻¹
same,koff,human serum albumin [6],0.0481 s⁻¹
same,kon,human serum albumin [6],112000 M⁻¹ s⁻¹
same,Kd,human serum albumin [7],500 to 5000 nM
same,Ka,human serum albumin [8],1.03e+06 M⁻¹
same,koff,human serum albumin [8],0.0486 s⁻¹
same,kon,human serum albumin [8],50100 M⁻¹ s⁻¹
same,Kd,human serum albumin [9],970 nM
same,Kd,mouse serum albumin,> 5000 nM
same,Kd,human serum albumin [10],800 nM
same,Kd,rat serum albumin,> 5000 nM

# From patent US20090111745A1 (DOMANTIS, published 2009)
